{"source": "patent US20090170069A1", "binders": {"B1": {"name": "TJ10 (beta-sheet mini protein) (designed binder)", "chain": "MAQTFWLSIQGKTLYWQIRIYAIDAAEAEKIFKQYANDNGIDGEWTYDDATKTFTVTE"}}, "target": "amyloid β-peptide Aβ40, aggregating sample (soluble oligomers, early intermediates) (UniProt P05067)", "assay": "cell-based or functional assay"}
{"binder": "B1", "values": [{"measurement": "ThT fluorescence: share of Aβ40 aggregated after 18 h", "result": 38, "unit": "%"}]}
